The results in this text go back to the Human Domainome abundance scans (Beltran et al. 2025).

B1: Histone-lysine N-methyltransferase 2A, residues 1148 to 1194; numbered along this chain, Q03164 (parent)
chain: KGRRSRRCGQCPGCQVPEDCGVCTNCLDKPKFGGRNIKKQCCKMRKC

± gives the uncertainty stated by the source.

In this series the parent is B1. Kind of series: abundance fitness (aPCA) (normalised: wild type 0, dead -1); higher = more abundant; growth selection in yeast, the domain comes from the species named. The note with it: Homo sapiens.
KGRRSRRCGQCPGCNVPEDCGVCTNCLDKPKFGGRNIKKQCCKMRKC [Q15N]: the abundance fitness is -0.392 ± 0.15. In the case of KGRRSRRCGQCPGCTVPEDCGVCTNCLDKPKFGGRNIKKQCCKMRKC [Q15T], the abundance fitness is -0.244 ± 0.1. For KGRRSRRCGQCPGCVVPEDCGVCTNCLDKPKFGGRNIKKQCCKMRKC [Q15V] the value was -0.25 ± 0.089; for KGRRSRRCGQCPGCIVPEDCGVCTNCLDKPKFGGRNIKKQCCKMRKC [Q15I], -0.185 ± 0.16.

Turning to KGRRSRRCGQCPGCFVPEDCGVCTNCLDKPKFGGRNIKKQCCKMRKC [Q15F], the abundance fitness was -0.54 ± 0.13. As for KGRRSRRCGQCPGCWVPEDCGVCTNCLDKPKFGGRNIKKQCCKMRKC [Q15W], the abundance fitness is -0.468 ± 0.11. For KGRRSRRCGQCPGCEVPEDCGVCTNCLDKPKFGGRNIKKQCCKMRKC [Q15E] the value was -0.103 ± 0.12; for KGRRSRRCGQCPGCDVPEDCGVCTNCLDKPKFGGRNIKKQCCKMRKC [Q15D], -0.463 ± 0.16; for KGRRSRRCGQCPGCLVPEDCGVCTNCLDKPKFGGRNIKKQCCKMRKC [Q15L], -0.049 ± 0.081. For KGRRSRRCGQCPGCYVPEDCGVCTNCLDKPKFGGRNIKKQCCKMRKC [Q15Y] the value was -0.727 ± 0.15. Next, KGRRSRRCGQCPGCAVPEDCGVCTNCLDKPKFGGRNIKKQCCKMRKC [Q15A]: -0.112 ± 0.089; KGRRSRRCGQCPGCSVPEDCGVCTNCLDKPKFGGRNIKKQCCKMRKC [Q15S]: -0.313 ± 0.085.

As for KGRRSRRCGQCPGCCVPEDCGVCTNCLDKPKFGGRNIKKQCCKMRKC [Q15C], the abundance fitness is -0.37 ± 0.11. KGRRSRRCGQCPGCPVPEDCGVCTNCLDKPKFGGRNIKKQCCKMRKC [Q15P]: the abundance fitness was -0.838 ± 0.14.

In the case of KGRRSRRCGQCPGCGVPEDCGVCTNCLDKPKFGGRNIKKQCCKMRKC [Q15G], the abundance fitness was -0.384 ± 0.088.

Consider KGRRSRRCGQCPGCHVPEDCGVCTNCLDKPKFGGRNIKKQCCKMRKC [Q15H], for which the abundance fitness is -0.355 ± 0.18. As for KGRRSRRCGQCPGCMVPEDCGVCTNCLDKPKFGGRNIKKQCCKMRKC [Q15M], the abundance fitness turned out to be 0.058 ± 0.11. Next, KGRRSRRCGQCPGCRVPEDCGVCTNCLDKPKFGGRNIKKQCCKMRKC [Q15R]: -0.19 ± 0.093. Consider KGRRSRRCGQCPGCQVNEDCGVCTNCLDKPKFGGRNIKKQCCKMRKC [P17N], for which the abundance fitness is -0.313 ± 0.23. Next, KGRRSRRCGQCPGCQVFEDCGVCTNCLDKPKFGGRNIKKQCCKMRKC [P17F]: -0.123 ± 0.11. On to KGRRSRRCGQCPGCQVVEDCGVCTNCLDKPKFGGRNIKKQCCKMRKC [P17V], for which the abundance fitness is -0.057 ± 0.087.

As for KGRRSRRCGQCPGCQVDEDCGVCTNCLDKPKFGGRNIKKQCCKMRKC [P17D], the abundance fitness was -0.615 ± 0.2. For KGRRSRRCGQCPGCQVLEDCGVCTNCLDKPKFGGRNIKKQCCKMRKC [P17L] the value was -0.06 ± 0.091; for KGRRSRRCGQCPGCQVKEDCGVCTNCLDKPKFGGRNIKKQCCKMRKC [P17K], 0.095 ± 0.12.

With KGRRSRRCGQCPGCQVEEDCGVCTNCLDKPKFGGRNIKKQCCKMRKC [P17E], the abundance fitness was found to be 0.074 ± 0.11.

In the case of KGRRSRRCGQCPGCQVSEDCGVCTNCLDKPKFGGRNIKKQCCKMRKC [P17S], the abundance fitness came to 0.026 ± 0.091. For the variant KGRRSRRCGQCPGCQVTEDCGVCTNCLDKPKFGGRNIKKQCCKMRKC [P17T], the abundance fitness was 0.161 ± 0.12. For KGRRSRRCGQCPGCQVAEDCGVCTNCLDKPKFGGRNIKKQCCKMRKC [P17A] the value was -0.058 ± 0.096. For KGRRSRRCGQCPGCQVMEDCGVCTNCLDKPKFGGRNIKKQCCKMRKC [P17M] the value was -0.241 ± 0.13; for KGRRSRRCGQCPGCQVCEDCGVCTNCLDKPKFGGRNIKKQCCKMRKC [P17C], -0.367 ± 0.12. For the variant KGRRSRRCGQCPGCQVIEDCGVCTNCLDKPKFGGRNIKKQCCKMRKC [P17I], the abundance fitness was -0.358 ± 0.2. With KGRRSRRCGQCPGCQVQEDCGVCTNCLDKPKFGGRNIKKQCCKMRKC [P17Q], the abundance fitness is -0.159 ± 0.11. For the variant KGRRSRRCGQCPGCQVGEDCGVCTNCLDKPKFGGRNIKKQCCKMRKC [P17G], the abundance fitness is -0.082 ± 0.084.

For the variant KGRRSRRCGQCPGCQVYEDCGVCTNCLDKPKFGGRNIKKQCCKMRKC [P17Y], the abundance fitness is -0.485 ± 0.16.

KGRRSRRCGQCPGCQVWEDCGVCTNCLDKPKFGGRNIKKQCCKMRKC [P17W]: the abundance fitness is -0.215 ± 0.094. Next, KGRRSRRCGQCPGCQLPEDCGVCTNCLDKPKFGGRNIKKQCCKMRKC [V16L]: 0.205 ± 0.077; KGRRSRRCGQCPGCQPPEDCGVCTNCLDKPKFGGRNIKKQCCKMRKC [V16P]: -0.414 ± 0.12.

Take KGRRSRRCGQCPGCQEPEDCGVCTNCLDKPKFGGRNIKKQCCKMRKC [V16E]: the abundance fitness is -0.522 ± 0.11. Consider KGRRSRRCGQCPGCQAPEDCGVCTNCLDKPKFGGRNIKKQCCKMRKC [V16A], for which the abundance fitness is -0.278 ± 0.1. As for KGRRSRRCGQCPGCQIPEDCGVCTNCLDKPKFGGRNIKKQCCKMRKC [V16I], the abundance fitness is -0.066 ± 0.14. For KGRRSRRCGQCPGCQKPEDCGVCTNCLDKPKFGGRNIKKQCCKMRKC [V16K] the value was 0.103 ± 0.13; for KGRRSRRCGQCPGCQRPEDCGVCTNCLDKPKFGGRNIKKQCCKMRKC [V16R], 0.196 ± 0.08; for KGRRSRRCGQCPGCQCPEDCGVCTNCLDKPKFGGRNIKKQCCKMRKC [V16C], -0.468 ± 0.15.

KGRRSRRCGQCPGCQGPEDCGVCTNCLDKPKFGGRNIKKQCCKMRKC [V16G]: the abundance fitness is -0.705 ± 0.1.

As to KGRRSRRCGQCPGCQYPEDCGVCTNCLDKPKFGGRNIKKQCCKMRKC [V16Y], the abundance fitness is -0.178 ± 0.17.

On to KGRRSRRCGQCPGCQNPEDCGVCTNCLDKPKFGGRNIKKQCCKMRKC [V16N], for which the abundance fitness was 0.146 ± 0.18. In the case of KGRRSRRCGQCPGCQDPEDCGVCTNCLDKPKFGGRNIKKQCCKMRKC [V16D], the abundance fitness is -0.783 ± 0.17. Next, KGRRSRRCGQCPGCQMPEDCGVCTNCLDKPKFGGRNIKKQCCKMRKC [V16M]: 0.159 ± 0.11; KGRRSRRCGQCPGCQQPEDCGVCTNCLDKPKFGGRNIKKQCCKMRKC [V16Q]: 0.223 ± 0.1; KGRRSRRCGQCPGCQSPEDCGVCTNCLDKPKFGGRNIKKQCCKMRKC [V16S]: -0.168 ± 0.087.

Take KGRRSRRCGQCPGCQHPEDCGVCTNCLDKPKFGGRNIKKQCCKMRKC [V16H]: the abundance fitness was -0.3 ± 0.15.

For KGRRSRRCGQCPGCQTPEDCGVCTNCLDKPKFGGRNIKKQCCKMRKC [V16T], the abundance fitness came to 0.173 ± 0.11. Next, KGRRSRRCGQCPGCQWPEDCGVCTNCLDKPKFGGRNIKKQCCKMRKC [V16W]: -0.285 ± 0.11; KGRRSRRCGQCPGCQVPEKCGVCTNCLDKPKFGGRNIKKQCCKMRKC [D19K]: -0.898 ± 0.15.

On to KGRRSRRCGQCPGCQVPEMCGVCTNCLDKPKFGGRNIKKQCCKMRKC [D19M], for which the abundance fitness was -0.339 ± 0.15.
